The record followed here is patent publication US20180008723A1 (UNIVERSITE DES SCIENCES ET TECHNOLOGIES DE LILLE LILLE 1, published 2018).

The term EC50 (read off the curve) denotes the concentration that produces a half-maximal response. Low readings indicate an effect from little substance, high ones a need for much substance.

For experiment [1], the target named is T1, MET-Fc (extracellular MET domain fused with human IgG1-Fc) (human, UniProt P08581 25-932).
T1 construct: extracellular domain; Recombinant chimera; also called recombinant extracellular MET-Fc chimera; hMET-Fc; not shown: human IgG1 Fc
T1 sequence (P08581 25-932): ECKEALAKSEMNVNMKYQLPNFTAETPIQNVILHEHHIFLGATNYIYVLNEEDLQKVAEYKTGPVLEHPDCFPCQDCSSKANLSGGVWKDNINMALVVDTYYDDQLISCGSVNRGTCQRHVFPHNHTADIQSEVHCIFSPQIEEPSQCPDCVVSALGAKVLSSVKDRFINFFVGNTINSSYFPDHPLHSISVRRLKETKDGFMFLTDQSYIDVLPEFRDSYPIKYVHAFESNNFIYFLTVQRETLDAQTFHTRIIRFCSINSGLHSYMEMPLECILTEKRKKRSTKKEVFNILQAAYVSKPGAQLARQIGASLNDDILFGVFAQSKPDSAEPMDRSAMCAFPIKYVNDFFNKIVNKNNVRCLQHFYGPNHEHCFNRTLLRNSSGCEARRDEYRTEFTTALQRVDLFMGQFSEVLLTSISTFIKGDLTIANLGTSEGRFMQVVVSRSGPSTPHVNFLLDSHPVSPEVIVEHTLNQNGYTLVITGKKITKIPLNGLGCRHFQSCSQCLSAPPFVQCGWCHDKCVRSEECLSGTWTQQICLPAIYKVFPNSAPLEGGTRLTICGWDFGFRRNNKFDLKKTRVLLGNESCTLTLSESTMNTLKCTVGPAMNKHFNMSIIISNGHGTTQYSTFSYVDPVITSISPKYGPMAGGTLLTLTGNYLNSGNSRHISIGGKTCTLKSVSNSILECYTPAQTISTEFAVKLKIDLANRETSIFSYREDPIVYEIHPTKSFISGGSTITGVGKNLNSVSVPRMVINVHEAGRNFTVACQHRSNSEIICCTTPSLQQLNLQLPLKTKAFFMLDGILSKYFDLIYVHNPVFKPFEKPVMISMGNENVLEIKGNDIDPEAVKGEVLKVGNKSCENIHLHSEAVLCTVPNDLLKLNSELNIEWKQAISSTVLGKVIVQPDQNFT
As to the kind of experiment: AlphaScreen saturation assay: NB on streptavidin donor beads, MET-Fc on Protein A acceptor beads. The procedure: (§1) FIG. 4. K1B and NB MET binding properties. (a) Structure of NK1 dimer (center, PDB 1BHT) and spatial relative orientation of each N (left) and K1 (right) monomers within the dimer. Dashed arrows indicate distances between subdomain C-termini. (b) NB, K1B and MET-Fc binding assay. Increasing concentrations of NB or K1B were mixed with extracellular MET domain fused with human IgG1-Fc (MET-Fc), and incubated with streptavidin AlphaScreen donor beads and Protein A acceptor beads. Error bars correspond to standard error (+/−SD) of triplicates. (c) Endogenous MET capture. Streptavidin coated beads loaded with NB or K1B were incubated with HeLa or Capan-1 total cell lysates. Input, flow-through and elution fractions from NB or K1 loaded beads were analyzed by specific total MET western blot.
(§2) The binding of K1B/S complexes to MET was examined using AlphaScreen technology. K1B was loaded on streptavidin-coated donor beads and incubated with recombinant extracellular MET-Fc chimera loaded on Protein A-coated acceptor beads. If K1B/S donor beads interact with MET-Fc/Protein A acceptor beads, a chemical energy transfer is possible between the beads, leading to fluorescence emission upon laser excitation. […]
(In general: Alpha assays give light when donor and acceptor beads are brought close together.)

Experiment [2] concerns the target T2, endogenous MET receptor of human cells (HeLa, Capan-1) (human, UniProt P08581 25-1390).
T2 construct: whole, on cells; On living HeLa cells in the signalling assays; from whole cell lysates of HeLa or Capan-1 cells in the capture experiment; also called tyrosine kinase receptor MET
As to the kind of experiment: pull-down of endogenous MET from HeLa and Capan-1 total cell lysates on streptavidin beads loaded with NB, total MET western blot. As for the experimental part: as §1
HeLa and Capan-1 cells were collected by scraping and then lysed on ice with a lysis buffer (20 mM Tris HCl, 50 mM NaCl, 5 mM EDTA and 1% Triton X-100). Lysates were clarified by centrifugation (20,000 g×15 min) and protein concentration was determined (BCA protein assay Kit, Pierce®, Thermo scientific, IL, USA). Streptavidin-Sepharose beads (GE Healthcare) were washed and equilibrated in PBS. Beads were loaded with 15 μg K1B or NB (100 μl beads in a 50:50 PBS:bead slurry) for 20 min at room temperature and immediately washed with PBS. […] Elution fractions were then analyzed by western blotting.

Experiment [3] has as its target T1, MET-Fc (extracellular MET domain fused …). As to the kind of experiment: AlphaScreen saturation assay; the reference is a literature value that is not given. As for the experimental part: as §1, with “Dashed” for “FIG. 4. K1B and NB MET binding properties. (a) Structure of NK1 dimer (center, PDB 1BHT) and spatial relative orientation of each N (left) and K1 (right) monomers within the dimer. Dashed”
The binding of K1B/S complexes to MET was examined using AlphaScreen technology. K1B was loaded on streptavidin-coated donor beads and incubated with recombinant extracellular MET-Fc chimera loaded on Protein A-coated acceptor beads. If K1B/S donor beads interact with MET-Fc/Protein A acceptor beads, a chemical energy transfer is possible between the beads, leading to fluorescence emission upon laser excitation. […] Since the bead-based AlphaScreen assay can generate avidity and thus introduce a bias in the estimation of the apparent KD in saturation experiments, it was performed the reciprocal competition assay by adding increasing concentrations of preformed K1B/S complex (2:1 molar ratio) into the K1B/MET-Fc/AlphaScreen bead mixture (FIG. 6). […]

Experiment [4] shares this target. Nature of the experiment: AlphaScreen saturation assay: K1B on streptavidin donor beads, MET-Fc on Protein A acceptor beads. As for the experimental part: as §1, §2
For experiment [5] the target is unchanged. As to the kind of experiment: AlphaScreen saturation assay: K1B on streptavidin-coated donor beads, MET-Fc on Protein A-coated acceptor beads (apparent, multivalent display); saturation assay; K1B on streptavidin-coated donor beads (apparent KD, avidity possible). As for the experimental part: as §1, §2

T2 sequence (P08581 25-1390): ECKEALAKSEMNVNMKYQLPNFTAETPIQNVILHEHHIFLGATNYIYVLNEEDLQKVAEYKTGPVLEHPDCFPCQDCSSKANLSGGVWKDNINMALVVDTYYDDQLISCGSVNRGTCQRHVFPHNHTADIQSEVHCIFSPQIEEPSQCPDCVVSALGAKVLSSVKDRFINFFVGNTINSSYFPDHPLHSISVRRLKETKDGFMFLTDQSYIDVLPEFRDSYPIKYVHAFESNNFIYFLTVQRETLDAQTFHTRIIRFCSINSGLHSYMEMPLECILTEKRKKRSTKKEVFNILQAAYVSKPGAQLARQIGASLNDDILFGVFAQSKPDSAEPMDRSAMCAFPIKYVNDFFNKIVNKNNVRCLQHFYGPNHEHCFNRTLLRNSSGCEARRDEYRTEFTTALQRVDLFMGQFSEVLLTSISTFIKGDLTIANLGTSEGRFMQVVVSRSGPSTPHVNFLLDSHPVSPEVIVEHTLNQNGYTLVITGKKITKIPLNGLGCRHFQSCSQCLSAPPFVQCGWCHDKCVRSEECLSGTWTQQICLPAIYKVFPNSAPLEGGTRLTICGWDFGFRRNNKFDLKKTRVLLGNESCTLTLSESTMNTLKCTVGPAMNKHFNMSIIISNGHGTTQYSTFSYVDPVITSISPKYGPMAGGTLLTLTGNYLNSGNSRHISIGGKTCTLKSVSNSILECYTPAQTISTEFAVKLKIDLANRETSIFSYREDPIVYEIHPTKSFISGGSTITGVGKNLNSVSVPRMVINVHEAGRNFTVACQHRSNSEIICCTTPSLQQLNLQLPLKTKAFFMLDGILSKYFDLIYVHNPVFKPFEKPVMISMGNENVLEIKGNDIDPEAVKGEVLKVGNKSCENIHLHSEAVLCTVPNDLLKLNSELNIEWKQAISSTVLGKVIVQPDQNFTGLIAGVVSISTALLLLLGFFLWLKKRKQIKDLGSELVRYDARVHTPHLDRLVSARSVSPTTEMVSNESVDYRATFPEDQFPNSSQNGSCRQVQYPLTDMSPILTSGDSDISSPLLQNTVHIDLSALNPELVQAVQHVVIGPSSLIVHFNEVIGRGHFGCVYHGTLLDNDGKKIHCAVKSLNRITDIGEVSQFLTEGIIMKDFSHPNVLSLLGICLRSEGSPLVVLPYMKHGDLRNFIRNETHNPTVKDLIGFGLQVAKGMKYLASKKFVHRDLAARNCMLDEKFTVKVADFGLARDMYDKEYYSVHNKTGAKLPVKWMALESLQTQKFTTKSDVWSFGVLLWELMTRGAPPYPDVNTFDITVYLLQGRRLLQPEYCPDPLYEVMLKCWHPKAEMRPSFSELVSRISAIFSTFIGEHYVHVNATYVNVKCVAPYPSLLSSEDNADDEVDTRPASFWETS

B1: NB (ligand, human, UniProt P14210 31-127, looked up)
single chain: GQRKRRNTIHEFKKSAKTTLIKIDPALKIKTKKVNTADQCANRCTRNKGLPFTCKAFVFDKARKQCLWFPFNSMSSGVKKEFGHEFDLYENKDYIRN
modifications: biotinylated; the site is not stated for NB
notes: isolated N domain, chemically synthesised and biotinylated, not pre-mixed with soluble streptavidin; It is distinct from m9, the NB/S complex pre-mixed 2:1 with streptavidin; In both assays NB is presented on streptavidin-coated beads; also called biotinylated N domain of HGF/SF
Consider B1, for which the binding result is given as “no binding (tested: 300 nM)” in experiment [1] and “no binding” in experiment [2].

B2: K1B (biotinylated K1 domain of HGF/SF, residues 125-209 with C-terminal GGK(biotin) extension) (ligand)
chain: IRNCIIGKGRSYKGTVSITKSGIKCQPWSSMIPHEHSFLPSSYRGKDLQENYCRNPRGEEGGPWCFTSNPEVRYEVCDIPQCSEVGGK
modifications: C-terminal lysine of the GGK extension modified on its side chain with a biotin group; three native disulfide bonds
notes: also called K1-Biot; biotinylated version of the K1 domain
Regarding B2, the “fold lower apparent KD than the KD reported for monomeric K1 protein-MET interaction” value in experiment [3] was roughly 100 fold. The half-maximal effective concentration (EC50 (read off the curve)) in experiment [4] is roughly 20 nM. Also, in experiment [5], the Kd was roughly 16 nM.
